Results reported in patent US20240199761A1 (AstraZeneca / MedImmune, published 2024).
One block for each binder: values may come before it.

Key:
recombinant human PAD2 [1] = target: recombinant human PAD2 (human, UniProt Q9Y2J8 1-665, enzymatically biotinylated on an Avi-tag (when captured on the SPR chip)); assay: cell-based or functional assay
[2] = target: T1, human PAD2, recombinant, tags at the N-terminus (human, UniProt Q9Y2J8 1-665, enzymatically biotinylated on an Avi-tag where captured on streptavidin); assay: SPR; antibody on C1-Protein G', PAD2 flowed over
T1 construct: not shown: N-terminal tags incl; Avi-tag

[3] = target: T2, mouse PAD2, recombinant, tags at the N-terminus (mouse, UniProt Q08642 1-673, enzymatically biotinylated on an Avi-tag where captured on streptavidin); assay: SPR; antibody on C1-Protein G', PAD2 flowed over
T2 construct: not shown: N-terminal tags incl; Avi-tag

[4] = target: T3, cynomolgus PAD2, recombinant, tags at the N-terminus (cynomolgus, UniProt G7NUR0 1-665, enzymatically biotinylated on an Avi-tag where captured on streptavidin); assay: SPR; antibody on C1-Protein G', PAD2 flowed over
T3 construct: also called Cyno PAD2; not shown: N-terminal tags incl; Avi-tag

[5] = target: T1, human PAD2, recombinant, tags at the …; assay: SPR; antibody on C1-Protein G', PAD2 flowed over; remark: listed apart in the source
[6] = target: T2, mouse PAD2, recombinant, tags at the …; assay: SPR; antibody on C1-Protein G', PAD2 flowed over; remark: listed apart in the source
[7] = target: T3, cynomolgus PAD2, recombinant, tags at …; assay: SPR; antibody on C1-Protein G', PAD2 flowed over; remark: listed apart in the source
recombinant mouse PAD4 = target: T4, recombinant mouse PAD4 (mouse, UniProt Q9Z183 1-666); assay: SPR; biotinylated antibody captured on C1-streptavidin, PAD4 flowed over
T4 construct: Recombinant

recombinant mouse PAD2 = target: T5, recombinant mouse PAD2 (mouse, UniProt Q08642 1-673); assay: ratio of SPR KDs, mouse PAD2 against human PAD2; antibody captured on C1-Protein G', PAD flowed over
T5 construct: Recombinant and tagged

recombinant human PAD2 [8] = target: recombinant human PAD2 (human, UniProt Q9Y2J8 1-665); assay: cell-based or functional assay
[9] = target: T1, human PAD2, recombinant, tags at the …; assay: SPR; antibody captured on a surface, PAD2 flowed over
[10] = target: T2, mouse PAD2, recombinant, tags at the …; assay: as above
[11] = target: T3, cynomolgus PAD2, recombinant, tags at …; assay: as above

B1: Clone 07 (Bis3, TM; PAD4 Fab, PAD2 scFv) (bispecific antibody, human IgG1, lambda)
heavy: not shown
light: QSALTQPRSVSGSPGQSVTISCTGTSGDVGRYSHVSWYQQHPGKAPKLIIYNVYERPSGVPDRFSGSKSGNTASLTISGLQAEDEADYYCSSHSRSSTPVLFGGGTKLTVLGQPKAAPSVTLFPPSSEELQANKATLVCLISDFYPGAVTVAWKADSSPVKAGVETTTPSKQSNNKYAASSYLSLTPEQWKSHRSYSCQVTHEGSTVEKTVAPTECS
- potency (IC50), Histone-H3 citrullination ELISA, recombinant PAD2 (recombinant human PAD2 [1]): < 1 nM

B2: Clone 07, Bis3 anti-PAD4 Fab / anti-PAD2 scFv, Fc TM (bispecific antibody, human IgG1, lambda)
heavy: not shown
light: B1 light
notes: Bivalent for PAD2 and for PAD4; also called Clone 7*; PAD240007
- Kd [2]: 0.0161 nM
- koff [2]: 3.21e-05 s⁻¹
- kon [2]: 2e+06 M⁻¹ s⁻¹
- Kd [3]: 0.0162 nM
- koff [3]: 4.45e-05 s⁻¹
- kon [3]: 2.76e+06 M⁻¹ s⁻¹
- Kd [4]: 0.0219 nM
- koff [4]: 5.46e-05 s⁻¹
- kon [4]: 2.61e+06 M⁻¹ s⁻¹
- Kd [5]: 0.0161 nM
- Kd [6]: 0.0162 nM
- Kd [7]: 0.0219 nM

B3: AB1630205 (mouse anti-PAD4) (antibody, V domains shown)
VH: EVQLVESGGGLVKPGGSRKLSCAASGFTFSDYGMHWVRQAPEKGLEWVAYISSGSSTIYYADTVKGRFTISRDNAKNTLFLQMTSLRSEDTAMYYCTRTYYDDAMDYWGQGTSVTVSS
VL: SIVMTQTPKFLLVSAGDRVTITCKASQSVSNDVVWYQQKPGQSPKLLISYASNRYTGVPDRFTGSGYGTDFTFTISSVQAEDLAVYFCQQDYSSPWTFGGGTKLEIK
notes: Biotinylated antibody captured on the chip
- Kd (recombinant mouse PAD4): 0.094 nM
- koff (recombinant mouse PAD4): 0.000106 s⁻¹
- kon (recombinant mouse PAD4): 1.14e+06 M⁻¹ s⁻¹

B4: AB1630204 (mouse anti-PAD4) (antibody, V domains shown)
VH: QVQLQQPGAELVKPGASVKLSCKASGYTFTSYWMHWVKQRPGRGPEWIGRIDPNSGGTKYNEKFKSKAILTVDKPSSTAYMQLSSLTSEDSAVYYCAREGGDYWYFDVWGAGTTVTVSS
VL: QIVLTQSPALMSASPGEKVTMTCSANSGLRYMYWYQQKPRSSPKPWIYLTSNLASGVPARFSGSGSGTSYSLTISSMEAEDAATYYCQQWSSIPPTFGAGTKLELK
notes: as for B3
- Kd (recombinant mouse PAD4): 1.31 nM
- koff (recombinant mouse PAD4): 0.000314 s⁻¹
- kon (recombinant mouse PAD4): 239000 M⁻¹ s⁻¹

Further lines, results first:

- fold difference in KD, mouse/human (recombinant mouse PAD2): 1.2 fold
- Potency (IC50), Histone-H3 assay (recombinant human PAD2 [8]): 0.138 nM
B5: Clone 22 (IgG) (141LO0035 hIgG1 pgl-4) (antibody, V domains shown)
VH: not shown
VL: SYVLTQPPSVSVSPGQTASITCSGDKVGDKYVSWYQQKPGQSPVLVIYQDSQRPSGIPERFSGSNSGNTATLTISGTQAMDEADYYCQTWAPDVLLFGSGTKVTVL
notes: also called PAD2 IgG

- potency (IC50), Histone-H3 citrullination ELISA, recombinant PAD2 (recombinant human PAD2 [1]): < 1 nM
B6: Clone 22 (141LO0035 hIgG1 pgl-4), anti-PAD2, as IgG (antibody, V domains shown)
VH: not shown
VL: B5 VL

- Kd [9]: 0.0039 nM
- koff [9]: 1.71e-05 s⁻¹
- kon [9]: 4.36e+06 M⁻¹ s⁻¹
- Kd [10]: 0.00459 nM
- koff [10]: 2.24e-05 s⁻¹
- kon [10]: 4.93e+06 M⁻¹ s⁻¹
- Kd [11]: 0.011 nM
- koff [11]: 3.33e-05 s⁻¹
- kon [11]: 3.06e+06 M⁻¹ s⁻¹
- Kd [5]: 0.0039 nM
- Kd [6]: 0.00459 nM
- Kd [7]: 0.011 nM
B7: anti-PAD2 Clone 22 (141LO0035 hIgG1 pgl-4), IgG (antibody, V domains shown)
VH: not shown
VL: B5 VL
notes: also called Clone 22 (IgG)

- potency (IC50), Histone-H3 citrullination ELISA, recombinant PAD2 (recombinant human PAD2 [1]): < 1 nM
B8: Clone 08 (Bis3, TM; PAD2 Fab, PAD4 scFv) (bispecific antibody, human IgG1, lambda)
heavy: not shown
light: SYVLTQPPSVSVSPGQTASITCSGDKVGDKYVSWYQQKPGQSPVLVIYQDSQRPSGIPERFSGSNSGNTATLTISGTQAMDEADYYCQTWAPDVLLFGSGTKVTVLGQPKAAPSVTLFPPSSEELQANKATLVCLISDFYPGAVTVAWKADSSPVKAGVETTTPSKQSNNKYAASSYLSLTPEQWKSHRSYSCQVTHEGSTVEKTVAPTECS
